Measurements as given in PMC3800664.

What was measured:
[1] = target: GST-TKJMΔ (intracellular domain of the EGFR lacking the first 13 amino acids of the juxtamembrane region, fused to glutathione S-transferase); assay: cross-linking; total protein extracts of E. coli treated with BS3 or glutaraldehyde, western blot with anti-GST antibody; control without cross-linking agent
[2] = target: glutathione S-transferase (GST); assay: as above

glutathione S-transferase (GST), sequence (P08515 2-218): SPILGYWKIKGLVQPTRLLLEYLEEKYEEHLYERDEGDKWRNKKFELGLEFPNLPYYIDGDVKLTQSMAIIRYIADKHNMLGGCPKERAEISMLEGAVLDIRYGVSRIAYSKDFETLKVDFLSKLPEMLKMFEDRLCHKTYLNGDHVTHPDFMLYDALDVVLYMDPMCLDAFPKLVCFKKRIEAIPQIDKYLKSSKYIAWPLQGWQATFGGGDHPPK

stoichiometry N [1]	stoichiometry N [2]	Substance
2	–	GST-TKJMΔ (intracellular domain of the EGFR lacking the first 13 amino acids of the juxtamembrane region, fused to glutathione S-transferase) (domain or fragment)
–	2	glutathione S-transferase (GST) (natural protein)
